In patent US20250076311A1 (Chugai, published 2025):

How the values were obtained:
Human latent myostatin [1] = target: T1, Human latent myostatin (human, UniProt O14793 25-266; O14793 267-375); assay: SPR avidity condition (capture 185 RU), pH5.8, 37C; pH 5.8
T1 construct: Biotinylated in the ELISAs; also called human myostatin latent form
T1 sequence 1: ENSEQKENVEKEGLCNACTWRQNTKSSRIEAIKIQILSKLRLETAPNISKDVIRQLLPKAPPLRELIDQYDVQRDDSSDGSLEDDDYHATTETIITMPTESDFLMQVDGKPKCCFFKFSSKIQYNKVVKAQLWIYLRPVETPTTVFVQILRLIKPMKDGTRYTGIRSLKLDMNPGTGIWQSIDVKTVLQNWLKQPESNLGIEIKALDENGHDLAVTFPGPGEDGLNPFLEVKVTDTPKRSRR
T1 sequence 2: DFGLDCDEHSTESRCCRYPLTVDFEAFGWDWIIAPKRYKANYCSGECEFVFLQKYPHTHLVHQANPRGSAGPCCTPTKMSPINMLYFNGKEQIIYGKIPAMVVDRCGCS
Procedure: (§1) The kinetic parameters of anti-latent myostatin antibodies against human, cynomolgus monkey (cyno), and mouse latent myostatin were assessed at 37° C. at pH7.4 using a BIACORE® T200 instrument (GE Healthcare). ProA/G (Pierce) was immobilized onto all flow cells of a CM4 chip using amine coupling kit (GE Healthcare). Anti-latent myostatin antibody and analytes were prepared in ACES pH7.4 (20 mM ACES, 150 mM NaCl, 1.2 mM CaCl₂), 0.05% TWEEN® 20, 0.005% NaN3). […] The sensor surface was regenerated with 25 mM NaOH. Kinetic parameters were determined by processing and fitting the data to a 1:1 binding model using BIACORE® T200 Evaluation software, version 2.0 (GE Healthcare).
(§2) All experimental settings were the same as in Example 7, except that measurements were also performed in ACES pH5.8 buffer in addition to ACES pH7.4 condition. Some antibodies were only measured against human latent myostatin. Antibody capture level was aimed at 185 RU and 18.5 RU, for avidity and affinity assay, respectively. Kinetic parameters were determined using 1:1 Binding fitting using BIACORE® T200 Evaluation software, version 2.0 (GE Healthcare).

Human latent myostatin [2] = target: T1, Human latent myostatin; assay: SPR affinity condition (capture 18.5 RU), pH7.4, 37C
Procedure: as §1, §2

kon (Human latent myostatin [1]): 781000 M⁻¹ s⁻¹
kon (Human latent myostatin [2]): 1.54e+06 M⁻¹ s⁻¹
B1: MS_M103205H707-SG1/M103202L802-SK1 (antibody, human IgG1, kappa, V domains shown)
VH: QVTLKESGPVLVKPTETLTLTCTVSGIDLSHYDISWVRQAPGKGLEWVGIISYAGSTYYASWAKGRLTISKDTSKNQVVLTMTNMDPVDTATYYCARGVPAYSHGGDLWGQGTLVTVSS
VL: DIVMTQSPATLSLSPGERATLSCTSSQSVYHDNWLSWFQQKPGQPPKLLIYWASTLAYGVPSRFSGSGSGTDFTLTISSLQPEDAATYYCAGGYGGGLYAFGQGTKVEIKR
notes: also called MS1032LO04-SG1
